Target: the molecule itself
Assay: SEC

B1: 3′-5′ exonuclease domain of human EXD2 (residues 76−295, EXD2-exo) (domain or fragment, UniProt Q9NVH0 76-295, looked up)
chain: KAKVVTVSQEAEWDQIEPLLRSELEDFPVLGIDCEWVNLEGKASPLSLLQMASPSGLCVLVRLPKLICGGKTLPRTLLDILADGTILKVGVGCSEDASKLLQDYGLVVRGCLDLRYLAMRQRNNLLCNGLSLKSLAETVLNFPLDKSLLLRCSNWDAETLTEDQVIYAARDAQISVALFLHLLGYPFSRNSPGEKNDDHSSWRKVLEKCQGVVDIPFRSK
B1 was tested, and the “stoichiometry N” value was 2.

Source: article PMC6648332 (Nucleic Acids Research, 2019)
